Assays:
[1] = biological target: T1, P1 peptide, junction peptide of CH4-CεmX (SVNPGLAGGSAQSQRAPDRVL) (human); experiment: ELISA screen of hybridomas on coated P1 peptide
T1 construct: Synthetic peptide coated on ELISA plates at 10 ug/mL
T1 peptide: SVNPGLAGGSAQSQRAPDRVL
Method: Hybridoma cells secreting antibodies with the desired antigen-binding activities were screened as follows. Microtiter plates were coated by incubating with 10 μg/mL of P1 peptide and various other peptides or 1 μg/mL of various recombinant CεmX-fusion proteins in carbonate buffer, 0.1M, pH 9.6, overnight at 4° C. The wells were blocked with 1% BSA in PBS, pH=7.3 for 1 hour and incubated with the antisera or control antibodies at various dilutions for 1 hour at 37° C. After washing, the ligand-bound antibodies were detected by HRP-conjugated goat anti-mouse IgG, Fcγ fragment specific (Jackson ImmunoResearch) at 1:10,000 and incubated for 1 hour at 37° C., followed by incubation with TMB substrate (Clinical Scientific Products). The OD was determined at 450 nm. Positive clones were selected for further characterization.

[2] = biological target: T2, IgE.CH3-CH4 recombinant protein (UniProt P01854 211-426, limits assumed); experiment: ELISA on coated recombinant protein
T2 construct: domain: CH3-CH4; Recombinant protein coated at 1 ug/mL in ELISA
T2 sequence (P01854 211-426 limits assumed): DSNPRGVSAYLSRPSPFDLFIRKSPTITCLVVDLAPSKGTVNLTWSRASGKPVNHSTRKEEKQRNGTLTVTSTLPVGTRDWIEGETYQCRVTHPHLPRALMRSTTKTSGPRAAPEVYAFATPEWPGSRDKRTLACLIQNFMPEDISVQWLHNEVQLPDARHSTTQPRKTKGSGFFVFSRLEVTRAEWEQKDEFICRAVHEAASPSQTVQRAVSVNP

[3] = biological target: T3, P1.15 peptide SVNPGLAGGSAQS (human); experiment: ELISA on coated synthetic peptide
T3 peptide: SVNPGLAGGSAQS

B1: monoclonal anti-IgE antibody mAb 5A8 (antibody, V domains shown)
VH: QVQLKQSGPGLVAPSQSLSITCTVSGFSLTDYGVNWVRQPPGKGLEWLGMIWGDGSTDYNSTLKSRLSISKDNSKSQVFLKINSLQTDDTARYYCALNWFAYWGQGTLVTAAA
VL: NIVMTQSPAIMSASPGEKVTMTCSASSSVNYMHWYQQKSGTSPKRWIYDTSKLASGVPARFSGSGSGTSYSLTISSMEAEDAATYYCQQWSSNPWTFGGGTKLEIK
notes: Mouse hybridoma monoclonal antibody; It was detected with anti-mouse IgG reagents
binding result [1]: binds

B2: monoclonal anti-IgE antibody mAb 2H9 (antibody, V domains shown)
VH: QVQMQQPGAELVRPGASVKMSCRTSGYTFTNYNVHWLKQTPGQGLEWIGGMYPGNDDILYNQNFKDRATLTADRSSSTAYIQLRSLTSEDSAVYYCTRSGLQGPWFDYWGQGTLVTVSA
VL: DIQMTQSSSYLSVSLGGRVTISCRASDHINNWLAWYQQKPGNAPRLLISSATSLETGVPSRFSGSGSGKDYSLTIISVQTEDVATYYCQQCWITPFTFGSGTKLEIK
notes: Mouse hybridoma monoclonal antibody from BALB/c mice immunized with HBcAg-P1; It was detected with anti-mouse IgG reagents
binding result [2]: no binding
binding result [3]: binds
binding result [1]: binds
